Results published in patent US7423017B2, “Method for treating cartilage disorders” (Genentech, Inc., priority 1997, dated 2008).
Starred links: 1 amine or outer side, 2 acyl side, 3 side chain; linkers in the order of their positions; H or OH if unused. Positions of bridges follow the written chain, without caps; N, C: chain ends. Residues, ends and D or L forms follow the SMILES beside them. Suc = O=C(CCC(=O)[*:2])[*:1]

Legend:
IGFBP-1 [1] = target: T1, IGFBP-1 (Homo sapiens, UniProt P08833); experiment: BIACORE kinetics: IGFBP-1 binding to immobilized IGF-1 variants; set-up: made in house; host or cells: CHO cells; conditions: Table XVI; Y31C immobilized via disulfide linkage
T1 sequence (P08833 26-259): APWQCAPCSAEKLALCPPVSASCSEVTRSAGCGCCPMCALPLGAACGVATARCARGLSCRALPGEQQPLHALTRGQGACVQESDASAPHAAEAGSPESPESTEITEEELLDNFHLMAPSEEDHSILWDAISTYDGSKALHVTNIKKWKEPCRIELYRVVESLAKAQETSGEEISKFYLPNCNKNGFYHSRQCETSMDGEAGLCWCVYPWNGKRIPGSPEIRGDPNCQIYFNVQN
Experimental: The binding affinities of the IGF variants for IGFBP-1 and IGFBP-3 were determined using a BIACORE™-2000 real time kinetic interaction analysis system (Biacore, Inc., Piscataway, N.J.) to measure association (ka) and dissociation (kd) rates. Carboxymethylated dextran biosensor chips (CM5, BIAcore Inc.) were activated with EDC (N-ethyl-N′-(3-dimethylaminopropyl)-carbodiimide hydrochloride) and NHS(N-hydroxysuccinimide) according to the supplier's instructions. For immobilization, IGF mutants in 20 mM sodium acetate, pH 4.8, were injected onto the biosensor chip at a concentration of 50 μg/ml to yield approximately 450-600 RU's (resonance-responce units) of covalently-coupled protein. Unreacted groups were blocked with an injection of 1 M ethanolamine. Kinetic measurements were carried out by injecting two-fold serial dilutions (starting at 1 μM) of either IGFBP-1 or IGFBP-3 in running buffer (PBS, 0.05% TWEEN 20™, 0.1% ovalbumin, 0.1% sodium azide) at 25 °C using a flow rate of 20 μl/min. Association rates (ka) and dissociation rates (kd) were calculated separately using a 1:1 Langmuir™ association model in the BIACORE™ evaluation software v. 3.0. The equilibrium dissociation constant (KD) was calculated as kd/ka.
For measurements of IGFBP-1 binding to IGF-1, kinetics experiments were conducted using a single-cysteine IGF-1 variant, Y31C, that was immobilized onto the sensor chip surface via a disulfide linkage (BIACORE™ System Manual Supplement, 5a-1, Pharmacia (1991)).

IGFBP-1 [2] = target: T1, IGFBP-1; experiment: competitive phage ELISA of IGF-1 mutants, IGFBP-1; type: binding; set-up: made in house; host or cells: CHO cells
Experimental: (§1) An alanine-scanning mutagenesis approach (Cunningham and Wells, Science, 244: 1081-1085 (1989); U.S. Pat. No. 5,834,250) was used to remove that portion of each side chain of IGF-1 beyond the beta carbon. The contribution of these atoms to the free energy of binding of the IGF-1 analog to IGFBP-1 or to IGFBP-3 was then assessed by competitive phage ELISA. In this assay, IGFBP-1 or IGFBP-3 is used to inhibit IGF-phage mutants from binding to an IGFBP-1- or IGFBP-3-coated immunosorbant plate.
(§2) Immunosorbent plates (Nunc, MAXISORP™, 96 wells) were coated with 100 μl/well of 1 μg/ml IGFBP-1 or IGFBP-3 in PBS buffer pH 7.2 at 4° C. overnight. The plates were then blocked with 0.5% TWEEN 20™/PBS (also used as binding buffer) for 2 hours at room temperature (proteinaceous blocking agents like bovine serum albumin were avoided to prevent potential IGF or IGFBP contamination). E. coli cells (XL1-Blue, Stratagene) freshly transformed with phagemid vector were grown overnight in 5 mL 2YT medium (Sambrook et al., supra) in the presence of M13-VCS helper phage (Stratagene). Phage particles were harvested and resuspended in PBS buffer as described in Lowman, H. B., “Phage Display of Peptide Libraries on Protein Scaffolds,” in Cabilly, S. (ed.), Combinatorial Peptide Library Protocols (Humana Press Inc.: Totowa, N.J., 1998), pp. 249-264. Then phage concentrations were normalized to yield a maximal ELISA signal of 0.2-0.4 for each mutant (Lowman, in Cabilly, S. (ed.), supra). Threefold serial dilutions of soluble competitor were prepared on non-absorbent microtiter plates (Nunc, F, 96 wells) with binding buffer (0.5% TWEEN 20™/PBS) containing phage at the previously determined concentrations. The dilution range of competitor protein extended over six orders of magnitude, starting at 5 μM for IGFBP-1 and 500 nM for IGFBP-3. After blocking, the plates containing immobilized target were washed with 0.05% TWEEN™/PBS buffer and subsequently incubated with 80 μl/well of the premixed phage-competitor solutions for 1 hour at room temperature. After washing, bound phage was detected with 80 μl/well of a solution containing a primary rabbit anti-phage polyclonal antibody and a secondary goat anti-rabbit monoclonal antibody-horseradish peroxidase conjugate in 0.5% TWEEN 20™/PBS. o-Phenylenediamine (Sigma) and tetramethylbenzidine (Kirkegaard and Perry) were used as chromogenic substrates, resulting in product detection at 492 and 450 nm, respectively. IC50 values were determined by fitting the binding data to a generic saturation curve (Lowman, in Cabilly, S. (ed.), supra). At least two individual clones of each IGF-1 mutant were assayed. Numbers in Table XIII represent mean±standard deviation of individually assessed IC50 values.

IGFBP-3 [3] = target: T2, IGFBP-3 (Homo sapiens, UniProt P17936); experiment: competitive phage ELISA of IGF-1 mutants, IGFBP-3; type: binding; conditions: for larger effects on IGFBP-3 than on IGFBP-1 binding: phage ELISA
T2 construct: made in house
T2 sequence (P17936 28-291): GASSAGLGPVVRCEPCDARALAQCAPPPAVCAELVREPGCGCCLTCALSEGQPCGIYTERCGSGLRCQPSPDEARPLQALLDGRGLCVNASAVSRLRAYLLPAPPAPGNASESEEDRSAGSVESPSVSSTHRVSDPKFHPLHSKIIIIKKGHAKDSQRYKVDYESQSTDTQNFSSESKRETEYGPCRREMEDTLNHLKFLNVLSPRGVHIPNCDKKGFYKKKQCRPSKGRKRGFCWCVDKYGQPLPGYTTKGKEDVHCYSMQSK
Experimental: as §1, §2

IGFBP-3 [4] = target: T2, IGFBP-3; experiment: BIACORE competition assay: IGFBP-3 binding to immobilized IGF-1; conditions: for IC50 (mut) / IC50 (wt): IGF-1 inhibition, wt = BP3-01-ox
Experimental: IGF-1 was immobilized on a dextran chip for inhibition assays using a BIACORE™ 2000 surface-plasmon-resonance device (BIAcore, Inc., Piscataway, N.J.) to measure free binding protein. IGF-1 was biotinylated as described above, and injected over a chip to which streptavidin had been coupled (BIAcore, Inc.) to give 400 to 800 RU (response units) of immobilized IGF-1. […] Serial dilutions of peptide were mixed with a constant concentration (40 nM) of IGFBP-3. After incubation for >1 hour at room temperature, an aliquot of 20 μL was injected at a flow rate of 20 μL/min over the IGF-1 chip. Following the injection, a response reading was taken to measure the relative amount of IGFBP-3 bound to the IGF-1.

IGFBP-1 [5] = experiment: competitive phage ELISA of IGF-1 mutants, IGFBP-1; type: binding, human; conditions: relative IC50 IGFBP-1/relative IC50 IGFBP-3
Experimental: as §1, §2

[6] = phage display, soluble IGFBP-1 competitor
[7] = phage display, soluble IGFBP-3 competitor
[8] = IC50 mut/IC50 G1S-A70V, listed as Ala(1-3)-IGF-1

Molecule	relative specificity (IGFBP-1 [5])	IC50 (IGFBP-1 [2]; [6])	IC50 (IGFBP-3 [3]; [7])	other results
Y31C: point mutant of IGF-1 with a single unpaired cysteinyl thiol for site-specific immobilization				IGFBP-1 ka (IGFBP-1 [1]): 3.9 ± 0.4 ×10^4 M^−1; IGFBP-1 kd (IGFBP-1 [1]): 3.8 ± 0.1 ×10^−4 s^−1; IGFBP-1 IC50 (IGFBP-1 [2]; [6]): wild-type-like affinities; IGFBP-3 IC50 (IGFBP-3 [3]; [7]): wild-type-like affinities
CSCC[C@H](NC(=O)[C@H](CC(N)=O)NC(=O)[C@@H]1CSSC[C@H](NC(=O)[C@@H](NC(=O)[C@H](CCC(=O)O)NC(=O)[C@H](CCC(=O)O)NC(=O)[C@H](CO)NC(=O)[C@H](C)N)C(C)C)C(=O)N[C@@H](Cc2c[nH]c3ccccc23)C(=O)N2CCC[C@H]2C(=O)N[C@@H](C(C)C)C(=O)N[C@@H](C)C(=O)N[C@@H](CCC(=O)O)C(=O)N[C@@H](Cc2c[nH]c3ccccc23)C(=O)N[C@@H](Cc2ccc(O)cc2)C(=O)N[C@@H](CC(C)C)C(=O)N1)C(=O)N[C@@H](Cc1c[nH]c2ccccc12)C(=O)NCC(=O)N[C@@H](CCCNC(=N)N)C(=O)O [4D3.3P] (H-ASEEVCWPVAEWYLCNMWGR-OH; disulfide 6-15; N-terminus and C-terminus assumed)				IC50 (IGFBP-3 [4]): 5600 nM; IC50 (mut) / IC50 (wt) (IGFBP-3 [4]): 2.8
CC(C)C[C@@H]1NC(=O)[C@H](CC(C)C)NC(=O)[C@H](CC(C)C)NC(=O)[C@H](CC(=O)O)NC(=O)[C@@H]2CCCN2C(=O)[C@H](CCCNC(=N)N)NC(=O)[C@H](C(C)C)NC(=O)[C@H](CC(C)C)NC(=O)[C@H](CCC(N)=O)NC(=O)[C@@H](NC(=O)CCC(=O)O)CSSC[C@@H](C(=O)N[C@@H](CCC(N)=O)C(N)=O)NC1=O [BP3-107] (Suc-CQLVRPDLLLCQ-NH2; disulfide 1-11)				IC50 (IGFBP-3 [4]; inhibition of 40 nM IGFBP-3 binding to immobilized IGF-1): 100000 nM
CSCC[C@H](NC(=O)[C@H](CC(N)=O)NC(=O)[C@@H]1CSSC[C@H](NC(=O)[C@@H](N)C(C)C)C(=O)N[C@@H](Cc2c[nH]c3ccccc23)C(=O)N2CCC[C@H]2C(=O)N[C@@H](C(C)C)C(=O)N[C@@H](C)C(=O)N[C@@H](CCC(=O)O)C(=O)N[C@@H](Cc2c[nH]c3ccccc23)C(=O)N[C@@H](Cc2ccc(O)cc2)C(=O)N[C@@H](CC(C)C)C(=O)N1)C(=O)N[C@@H](Cc1c[nH]c2ccccc12)C(=O)NCC(=O)O [BP3-16] (H-VCWPVAEWYLCNMWG-OH; disulfide 2-11; N-terminus and C-terminus assumed)				IC50 (IGFBP-3 [4]): 30000 nM
CC(C)C[C@@H]1NC(=O)[C@H](Cc2ccc(O)cc2)NC(=O)[C@H](Cc2c[nH]c3ccccc23)NC(=O)[C@H](CCC(=O)O)NC(=O)[C@H](C)NC(=O)[C@H](C(C)C)NC(=O)[C@@H]2CCCN2C(=O)[C@H](Cc2c[nH]c3ccccc23)NC(=O)[C@@H](N)CSSC[C@@H](C(=O)N[C@@H](CC(N)=O)C(=O)O)NC1=O [BP3-25] (H-CWPVAEWYLCN-OH; disulfide 1-10; N-terminus and C-terminus assumed)				IC50 (IGFBP-3 [4]): 46000 nM; IC50 (mut) / IC50 (wt) (IGFBP-3 [4]): 23
L64A: IGF-1 single alanine mutant	1.2	12.1 ± 3.3 nM	0.93 ± 0.03 nM	
E46A: IGF-1 single alanine mutant	0.8	7.9 ± 2.1 nM	0.94 ± 0.28 nM	
D53A: IGF-1 single alanine mutant	1.6	15.3 ± 2.8 nM	1.05 ± 0.11 nM	
D12A: IGF-1 single alanine mutant	0.3	4.3 ± 0.8 nM	1.49 ± 0.38 nM	increase in IGFBP-1 binding (IGFBP-1 [2]; phage ELISA): approximately 2 fold; larger effects on IGFBP-3 than on IGFBP-1 binding (IGFBP-3 [3]): about 2 fold
Y31A: IGF-1 single alanine mutant	0.9	6.8 ± 0.5 nM	0.73 ± 0.1 nM	
S69A: IGF-1 single alanine mutant	1.3	12.8 ± 2.3 nM	0.71 ± 0.62 nM	
G22A: IGF-1 single alanine mutant	0.7	15.9 ± 2.8 nM	2.07 ± 0.11 nM	
G42A: IGF-1 single alanine mutant	2.7	15.7 ± 3.4 nM	0.53 ± 0.2 nM	
S34A: IGF-1 single alanine mutant	0.5	9.5 ± 0.7 nM	1.65 ± 0.21 nM	larger effects on IGFBP-3 than on IGFBP-1 binding (IGFBP-3 [3]): about 2 fold
V44A: IGF-1 single alanine mutant	1.7	18.8 ± 5.4 nM	1.03 ± 0.06 nM	
S51A: IGF-1 single alanine mutant	1.9	13.4 ± 0.4 nM	0.65 ± 0.35 nM	
Ala(1-3)-IGF: triple alanine mutant substituting the first three N-terminal amino acids of IGF-1 (protein) AAATLCGAELVDALQFVCGDRGFYFNKPTGYGSSSRRAPQTGIVDECCFRSCDLRRLEMYCAPLKPAKSVSGGGSGSGDFDYEKMANANKGAMTENADENALQSDAKGKLDSVATDYGAAIDGFIGDVSGLANGNGATGDFAGSNSQMAQVGDGDNSPLMNNFRQYLPSLPQSVECRPFVFSAGKPYEFSIDCDKINLFRGVFAFLLYVATFMYVFSTFANILRNKES	7.3			IGFBP-1 Relative IC50 (IGFBP-1 [2]; [8]): decreased IGFBP-1 affinity similar to E3A; IGFBP-3 relative IC50 (IGFBP-3 [3]; [8]): no change in IGFBP-3 affinity
